Data reported in publication PMC3275625.

Biological target: SITS-labeled human αB-crystallin wild type (human) (UniProt P02511)
Assay: FRET or BRET; in vitro subunit exchange: equal amounts (0.4 mg/ml) of SITS-labeled αB-wt (donor) and LYI-labeled αA-wt or mutant (acceptor) mixed at 37°C in 20 mM MOPS, 100 mM NaCl, pH 7.9; excitation 336 nm, rate constant k from the increase of acceptor emission at 515 nm, fit Ft/F0 = A1+A2e^-kt

SITS-labeled human αB-crystallin wild type (human), sequence (P02511 whole entry): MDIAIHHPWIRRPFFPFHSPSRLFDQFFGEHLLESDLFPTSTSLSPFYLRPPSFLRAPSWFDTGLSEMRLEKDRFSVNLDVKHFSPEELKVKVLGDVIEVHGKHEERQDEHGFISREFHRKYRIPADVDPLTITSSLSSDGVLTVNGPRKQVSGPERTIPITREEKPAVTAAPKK
LYI-labeled human αA-crystallin wild type, sequence (P02489 whole entry): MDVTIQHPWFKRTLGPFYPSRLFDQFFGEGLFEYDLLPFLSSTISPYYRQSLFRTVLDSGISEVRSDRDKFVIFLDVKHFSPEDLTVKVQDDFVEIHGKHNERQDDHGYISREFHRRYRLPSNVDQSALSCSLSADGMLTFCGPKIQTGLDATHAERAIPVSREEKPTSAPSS

Substance: LYI-labeled human αA-crystallin wild type (from UniProt P02489 1-173) (natural protein)
- k (rate constant of subunit exchange): 0.000657 S^-1
